# Test results as given in US20170022275A1 (Dana-Farber, published 2017).
# B1: CM33322 Ab4 (antibody, V domains shown)
# VH: QVQLQESGPGLVRPSGTLSLTCAVSGGSIDYSNWWGWVRQVPGKGLEWIGEVYHTGATHYNPSLERRCIISVDKSNNQVSLQLTSVTAADSAIYYCARERGTHCDGNRCYYVFFDHWGQGIPVTVSS
# VL: DIVMTQTPLSSPVTLGQPASISCRSSESLVHWDGTTYLSWFHQRPGQPPRLLIYKVSNRFSGVPDRFSGSGAGTDFTLKISRVEADDVGIYYCMQATQFPRTFGQGTKVEIKR
# notes: also called anti-MICA antibody ID-11; antibody ID 11
# Assays:
# [1] = target: MICA antigen (UniGene Hs.130838) with C-terminal BirA tag (human) (UniProt Q29983); test: flow cytometry of MICA-coated streptavidin beads, antibody directly PE-conjugated; 0.002 µg/ml; uncoated SA bead: 2.16
# MICA antigen (UniGene Hs.130838) with C-terminal BirA tag (human), sequence (Q29983 other isoform, or with tags, fused parts or gaps limits assumed): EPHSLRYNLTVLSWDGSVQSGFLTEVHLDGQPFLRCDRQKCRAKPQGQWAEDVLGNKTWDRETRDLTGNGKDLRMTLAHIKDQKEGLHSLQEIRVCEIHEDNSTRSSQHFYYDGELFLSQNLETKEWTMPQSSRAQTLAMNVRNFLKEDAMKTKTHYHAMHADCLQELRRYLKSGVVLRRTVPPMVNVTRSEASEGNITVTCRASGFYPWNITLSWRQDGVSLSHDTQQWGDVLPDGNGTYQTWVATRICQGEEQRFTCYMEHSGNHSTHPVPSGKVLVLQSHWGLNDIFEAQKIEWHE
# [2] = target: MICA on the surface of cells (human) (UniProt Q29983); test: flow cytometry on B16 melanoma cells transduced with human MICA, antibody 10 µg/ml; B16 MICA unstained 11.4; same antibody on untransduced B16: 7.49 (B16 unstained 7.12)
# MICA on the surface of cells (human), sequence (Q29983 24-383): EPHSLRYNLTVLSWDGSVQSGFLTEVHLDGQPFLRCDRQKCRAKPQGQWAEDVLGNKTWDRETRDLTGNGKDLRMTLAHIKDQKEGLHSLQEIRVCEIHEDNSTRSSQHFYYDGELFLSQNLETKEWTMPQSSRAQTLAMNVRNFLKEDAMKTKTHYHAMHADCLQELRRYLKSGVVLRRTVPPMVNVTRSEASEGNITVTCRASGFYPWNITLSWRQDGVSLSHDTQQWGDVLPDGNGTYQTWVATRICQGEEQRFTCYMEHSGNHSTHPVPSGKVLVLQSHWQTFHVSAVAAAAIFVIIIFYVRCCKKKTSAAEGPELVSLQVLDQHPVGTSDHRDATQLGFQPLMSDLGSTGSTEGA
# [3] = target: MICA antigen (UniGene Hs.130838) with C-terminal BirA tag (human) (UniProt Q29983); test: flow cytometry of MICA-coated streptavidin beads, antibody directly PE-conjugated; legend box says 0.005ug, the label in the panel says 1.2 µg/ml (they do not agree); uncoated SA bead: 1.98
# [4] = target: MICA antigen (UniGene Hs.130838) with C-terminal BirA tag (human) (UniProt Q29983); test: flow cytometry of MICA-coated streptavidin beads, antibody directly PE-conjugated; legend box says 0.12ug, the label in the panel says 0.05 µg/ml (they do not agree); uncoated SA bead: 1.95
# [5] = target: MICA antigen (UniGene Hs.130838) with C-terminal BirA tag (human) (UniProt Q29983); test: flow cytometry of MICA-coated streptavidin beads, antibody directly PE-conjugated; legend box says 0.001ug, the label in the panel says 0.24 µg/ml (they do not agree); uncoated SA bead: 1.95
# [6] = target: MICA antigen (UniGene Hs.130838) with C-terminal BirA tag (human) (UniProt Q29983); test: flow cytometry of MICA-coated streptavidin beads, antibody directly PE-conjugated; legend box says 0.024ug, the label in the panel says 0.01 µg/ml (they do not agree); uncoated SA bead: 1.95
# [7] = target: MICA antigen (UniGene Hs.130838) with C-terminal BirA tag (human) (UniProt Q29983); test: flow cytometry of MICA-coated streptavidin beads, Alexa488 anti-human IgG; antibody 6 µg/ml; uncoated SA bead: 2.63
# [8] = target: MICA antigen (UniGene Hs.130838) with C-terminal BirA tag (human) (UniProt Q29983); test: flow cytometry of MICA-coated streptavidin beads, Alexa488 anti-human IgG; antibody 30 µg/ml; uncoated SA bead: 3.53
# [9] = target: MICA antigen (UniGene Hs.130838) with C-terminal BirA tag (human) (UniProt Q29983); test: flow cytometry of MICA-coated streptavidin beads, Alexa488 anti-human IgG; antibody 1.2 µg/ml; uncoated SA bead: 2.16
# [10] = target: MICA antigen (UniGene Hs.130838) with C-terminal BirA tag (human) (UniProt Q29983); test: flow cytometry of MICA-coated streptavidin beads, Alexa488 anti-human IgG; antibody 0.24 µg/ml; uncoated SA bead: 2.3
# [11] = target: MICA antigen (UniGene Hs.130838) with C-terminal BirA tag (human) (UniProt Q29983); test: flow cytometry of MICA-coated streptavidin beads, Alexa488 anti-human IgG; antibody 0.05 µg/ml; uncoated SA bead: 2.18
# MICA*009 = target: T1, MICA*009 (human, UniProt Q29983 26-307); test: array of overlapping 20-aa peptides of MICA*009 extracellular domains
# T1 construct: also called MICA allele 009
# T1 chain: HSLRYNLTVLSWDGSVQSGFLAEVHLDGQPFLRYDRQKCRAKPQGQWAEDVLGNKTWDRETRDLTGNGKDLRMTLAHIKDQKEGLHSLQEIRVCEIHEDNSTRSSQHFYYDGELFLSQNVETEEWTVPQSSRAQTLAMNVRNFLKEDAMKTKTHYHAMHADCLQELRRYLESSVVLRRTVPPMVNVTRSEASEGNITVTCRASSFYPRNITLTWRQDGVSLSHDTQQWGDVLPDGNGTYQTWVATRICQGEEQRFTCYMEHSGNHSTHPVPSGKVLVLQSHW
molecule,measurement,setting,value
"commercially available anti-MICA/MICB monoclonal antibody (clone 6D4), BioLegend",unnamed fluorescence number (FL2-H),[1],4.31
same,Geom. Mean:FL1-H,[2],188
same,unnamed fluorescence number (FL2-H),[3],65.9
same,unnamed fluorescence number (FL2-H),[4],391
same,unnamed fluorescence number (FL2-H),[5],16.8
same,unnamed fluorescence number (FL2-H),[6],194
negative control antibody (TTCF specific),unnamed fluorescence number (FL1-H),[7],2.62
same,unnamed fluorescence number (FL1-H),[8],3.43
same,unnamed fluorescence number (FL1-H),[9],2.27
same,unnamed fluorescence number (FL1-H),[10],2.28
same,unnamed fluorescence number (FL1-H),[11],2.23
B1,binding result,MICA*009,binds
